Measured values as given in patent US20150031754, “APTAMER MODULATORS OF ESTROGEN RECEPTORS” (RESEARCH FOUNDATION OF STATE UNIVERSITY OF NEW YORK AT …, published 2015).

B1: AptER-1 (clone B63) (ssRNA)
RNA: GGGAGAAUUCAACUGCCAUCUAGGCCCACAGUUCAGAGGCACCGCGAACAAAACGCAAGACAGAGUGCCGACAAGAGCACUACAAGCUUCUGGACUCGGU
B2: AptER-4 (ssRNA)
RNA: GGGAGAAUUCAACUGCCAUCUAGGCCACAGCCGGCGGUCGAACACCAGAGGGCGACUUUGGGUAGUCGAGUAUUAAGUACUACAAGCUUCUGGACUCGGU

Columns and labels:
[1] = molecular target: hERα ligand-binding domain (Homo sapiens, UniProt P03372 P03372:282-595); test: EMSA; 100 nM protein, 2.5 nM RNA; details: tags: GST fusion, baculovirus/insect cells, Invitrogen PV4543, label: 32P-CTP internal
Sequence of hERα ligand-binding domain (P03372 282-595, one chain of several): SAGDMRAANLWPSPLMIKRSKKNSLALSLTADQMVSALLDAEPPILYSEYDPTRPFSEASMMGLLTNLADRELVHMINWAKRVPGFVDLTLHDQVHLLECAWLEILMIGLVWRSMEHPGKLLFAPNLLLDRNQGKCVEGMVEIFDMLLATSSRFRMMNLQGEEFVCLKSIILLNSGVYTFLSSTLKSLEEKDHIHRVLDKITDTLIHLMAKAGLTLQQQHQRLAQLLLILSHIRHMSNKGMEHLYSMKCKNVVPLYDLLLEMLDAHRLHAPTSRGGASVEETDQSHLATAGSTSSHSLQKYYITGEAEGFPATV
Experimental: Human ERα was incubated with ligands (40 nM to 5 μM E2 or OHT) or vehicle control (EtOH) at 37° C. for 10 min before addition of RNA. Regardless of the absence or presence of the ligands, hERα formed a complex with AptER-1 in the same way. In FIG. 12B, the ligand competition assays showing that the interaction between AptER-4 and hERα was not intervened by ligand-binding. Human ERα was incubated with 1 μM E2 or vehicle control (EtOH) before addition of AptER-4. Regardless of the absence or presence of the ligands, hERα formed a complex with AptER-4 in the same way. […] Proteins were 100 nM. In the presence of hERα, both aptamers were shifted. No binding activity to GST/hERα-LBD was detected.
Whether the aptamers bind to LBD was examined in two ways. One approach was an EMSA to directly examine whether the aptamers bound to the GST/hERα-LBD construct. The recombinant human ERα-LBD purchased from Invitrogen was expressed as a GST-tagged fusion protein in baculovirus-infected insect cells. It contains amino acid 282 to 595 of hERα, with a calculated molecular weight of 62.80 kDa protein. According to the manufacturer's instruction, the concentration of functional receptor was determined by quantification of estrodial, [6, 7-³H9(N)] receptor complexes using a hydroxyapatite (HAP) assay. Binding reactions were set up with 2.5 nM radiolabeled aptamers and 100 nM protein. […]

[2] = molecular target: T1, Human estrogen receptor beta (hERβ) (Homo sapiens, UniProt Q92731 Q92731:1-530); test: filter; text prints hERα for this 26 nM value but context compares with hERβ (probable typo); details: tags: none stated; baculovirus/insect cells; EMD4 Biosciences 330657; label: 32P-CTP internal
T1 sequence (Q92731 whole entry, one chain of several): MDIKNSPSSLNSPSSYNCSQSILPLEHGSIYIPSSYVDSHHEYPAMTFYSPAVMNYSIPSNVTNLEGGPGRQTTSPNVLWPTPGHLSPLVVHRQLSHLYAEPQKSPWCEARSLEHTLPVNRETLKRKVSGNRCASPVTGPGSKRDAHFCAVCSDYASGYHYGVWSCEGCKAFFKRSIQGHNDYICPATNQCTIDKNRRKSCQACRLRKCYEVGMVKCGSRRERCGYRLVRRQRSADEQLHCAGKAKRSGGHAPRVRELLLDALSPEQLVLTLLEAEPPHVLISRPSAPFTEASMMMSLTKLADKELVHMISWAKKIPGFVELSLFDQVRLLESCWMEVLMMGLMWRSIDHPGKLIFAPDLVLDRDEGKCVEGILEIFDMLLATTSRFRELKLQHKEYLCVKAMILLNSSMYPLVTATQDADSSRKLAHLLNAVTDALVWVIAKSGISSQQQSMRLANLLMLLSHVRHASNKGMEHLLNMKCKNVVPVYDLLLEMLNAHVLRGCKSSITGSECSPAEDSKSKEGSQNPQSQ
Experimental: A constant trace amount of [γ-³²P]-CTP incorporated RNA aptamer (˜0.1 nM) was titrated with increasing amounts of the target protein ranging from 5 to 150 nM. The binding activity at each concentration was determined as % binding, by calculating the radioactive signal of the RNA-protein complex retained on the filter as a percentage of the signal at the highest protein concentration (saturated) used. The assays were performed in triplicates for each aptamer. A binding curve was constructed using Sigma Plot 9.0.1, with average binding affinity (% binding) as a function of the protein concentration using a sigmoidal equation (Hill equation, 3 parameters). Apparent Kd was the protein concentration where half of the maximal binding activity was achieved, and were calculated from the data points by using Sigma Plot. […] The first 3 aptamers were isolated in in vitro selection I, and their affinity rank explains the relative abundance in the final selected library. More specifically, it is believed that AptER-1 dominated the final selected pool because it was the strongest binder. AptER-4 was the weakest binder, and would not have been easily identified in the selection I libraries. […]

hERα DNA-binding domain [3] = molecular target: T2, hERα DNA-binding domain (Homo sapiens, UniProt P03372 P03372:180-268); test: EMSA; also no binding in filter assay; details: tags: N-terminal His6; E. coli BL21(DE3); label: 32P-CTP internal
T2 sequence (P03372 180-268, one chain of several): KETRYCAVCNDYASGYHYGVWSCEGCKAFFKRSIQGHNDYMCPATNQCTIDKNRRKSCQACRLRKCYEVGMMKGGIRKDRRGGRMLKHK
Experimental: No binding activity to RNase inhibitor (control) or DBD & RNase inhibitor was detected. The binding reactions were resolved on the same type of gel as above. […] End-radiolabeled ERE-50mer at 5 nM was mixed with 100× or 400× more concentrated unlabeled competitors ERE-50mer, AptER-1, -2 and -3 RNA or an early generation pool in hERα selection G1 before addition of hERα (40 nM). Only cold ERE-50mer disrupted radioactive ERE-hERα complex.
Class I aptamers bound with similar affinities to both subtypes of ER, which share the highest homology (96%) in the DBD. This raised the possibility that the target site of Class I aptamers was located within the DBD. Whether the aptamers bind to the DBD was tested in binding assays using a recombinant hERα-DBD. It was expressed as a His₆-tagged fusion protein in E. coli BL21 (DE3) and purified as described in the Materials and Methods. To verify its ERE-binding capability, a DNA EMSA was performed. DNA oligo ERE-50mer contains a GAAA tetra loop, which forces the oligo to form a hairpin. A copy of Xenopus laevis vitellogenin A2 ERE (5′-[…]-3′, SEQ ID NO: 73) was presented in the stem of a hairpin. […] However, in both EMSA (FIG. 11B) and filter-binding assay, no association was detected between AptER-1 and DBD. […]

[4] = molecular target: T3, Human estrogen receptor alpha (hERα), full-length, unliganded (Homo sapiens, UniProt P03372 P03372:1-595); test: FP; filter-binding assay (nitrocellulose), 12 mM HEPES pH 7.6, 150 mM NaCl, 10 mM MgCl2, 37 C; Hill coefficient about 1; details: tags: none stated; baculovirus/insect cells; Invitrogen P2187 or EMD4 Biosciences 330655; label: 32P-CTP internal
T3 sequence (P03372 whole entry, one chain of several): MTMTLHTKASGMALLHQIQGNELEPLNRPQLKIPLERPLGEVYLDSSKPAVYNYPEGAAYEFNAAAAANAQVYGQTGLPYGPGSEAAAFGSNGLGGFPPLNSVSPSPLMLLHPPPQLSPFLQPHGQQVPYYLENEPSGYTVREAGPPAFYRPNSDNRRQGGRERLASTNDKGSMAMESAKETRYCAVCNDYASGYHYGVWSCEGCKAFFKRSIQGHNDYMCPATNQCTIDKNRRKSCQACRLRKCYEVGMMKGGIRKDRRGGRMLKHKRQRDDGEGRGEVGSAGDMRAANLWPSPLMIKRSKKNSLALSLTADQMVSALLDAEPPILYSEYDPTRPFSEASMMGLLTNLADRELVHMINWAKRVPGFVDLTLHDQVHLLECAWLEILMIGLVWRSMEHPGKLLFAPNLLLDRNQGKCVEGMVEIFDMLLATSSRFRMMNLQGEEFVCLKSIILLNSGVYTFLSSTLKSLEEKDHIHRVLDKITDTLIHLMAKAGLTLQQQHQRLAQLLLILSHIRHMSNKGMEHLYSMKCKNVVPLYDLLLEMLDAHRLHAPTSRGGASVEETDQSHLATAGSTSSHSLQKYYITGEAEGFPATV
Experimental: (§1) The dissociation constant (Kd) of the AptER-1, -2, -3, and -4 were measured using a nitrocellulose filter binding assay. A constant trace amount of [γ-³²P]-CTP incorporated RNA aptamer (˜0.1 nM) was titrated with increasing amounts of the target protein ranging from 5 to 150 nM. The binding activity at each concentration was determined as % binding, by calculating the radioactive signal of the RNA-protein complex retained on the filter as a percentage of the signal at the highest protein concentration (saturated) used. The assays were performed in triplicates for each aptamer. A binding curve was constructed using Sigma Plot 9.0.1, with average binding affinity (% binding) as a function of the protein concentration using a sigmoidal equation (Hill equation, 3 parameters). Apparent Kd was the protein concentration where half of the maximal binding activity was achieved, and were calculated from the data points by using Sigma Plot. […] The first 3 aptamers were isolated in in vitro selection I, and their affinity rank explains the relative abundance in the final selected library. More specifically, it is believed that AptER-1 dominated the final selected pool because it was the strongest binder. AptER-4 was the weakest binder, and would not have been easily identified in the selection I libraries.

[5] = molecular target: T3, Human estrogen receptor alpha (hERα), …; test: filter; same buffer, 37 C; Hill n>1; details: tags: none stated; baculovirus/insect cells; Invitrogen P2187 or EMD4 Biosciences 330655; label: 32P-CTP internal; predicted three-way junction with two long hairpins
Experimental: as §1

hERα DNA-binding domain [6] = molecular target: T2, hERα DNA-binding domain; test: DBD binding assay, method not specified; details: tags: N-terminal His6; E. coli BL21(DE3); label: 32P-CTP internal; predicted three-way junction with two long hairpins
[7] = molecular target: T1, Human estrogen receptor beta (hERβ); test: filter; affinity for hERβ too low to be determined; details: tags: none stated; baculovirus/insect cells; EMD4 Biosciences 330657; label: 32P-CTP internal; predicted three-way junction with two long hairpins

Binder | binding result [1] | Kd [2] [nM] | binding result (hERα DNA-binding domain [3]) | Kd [4] [nM] | binding result ([1]; predicted three-way junction with two long hairpins) | Kd [5] [nM] | binding result (hERα DNA-binding domain [6]) | binding result [7]
B1 | no binding | ~26 | no binding | ~16 |  |  |  | 
B2 |  |  |  |  | no binding | ~45 | no binding | no binding
